Source: IntAct's records for PubMed 9153189

B1: Tumor necrosis factor receptor superfamily member 14 (Homo sapiens), Q92956 (parent)
chain: MEPPGDWGPPPWRSTPKTDVLRLVLYLTFLGAPCYAPALPSCKEDEYPVGSECCPKCSPGYRVKEACGELTGTVCEPCPPGTYIAHLNGLSKCLQCQMCDPAMGLRASRNCSRTENAVCGCSPGHFCIVQDGDHCAACRAYATSSPGQRVQKGGTESQDTLCQNCPPGTFSPNGTLEECQHQTKCSWLVTKAGAGTSSSHWVWWFLSGSLVIVIVCSTVGLIICVKRRKPRGDVVKVIVSVQRKRQEAEGEATVIEALQAPPDVTTVAVEETIPSFTGRSPNH
B2: Tumor necrosis factor receptor superfamily member 14 (Homo sapiens), Q92956 (parent)
chain: B1 chain
partner: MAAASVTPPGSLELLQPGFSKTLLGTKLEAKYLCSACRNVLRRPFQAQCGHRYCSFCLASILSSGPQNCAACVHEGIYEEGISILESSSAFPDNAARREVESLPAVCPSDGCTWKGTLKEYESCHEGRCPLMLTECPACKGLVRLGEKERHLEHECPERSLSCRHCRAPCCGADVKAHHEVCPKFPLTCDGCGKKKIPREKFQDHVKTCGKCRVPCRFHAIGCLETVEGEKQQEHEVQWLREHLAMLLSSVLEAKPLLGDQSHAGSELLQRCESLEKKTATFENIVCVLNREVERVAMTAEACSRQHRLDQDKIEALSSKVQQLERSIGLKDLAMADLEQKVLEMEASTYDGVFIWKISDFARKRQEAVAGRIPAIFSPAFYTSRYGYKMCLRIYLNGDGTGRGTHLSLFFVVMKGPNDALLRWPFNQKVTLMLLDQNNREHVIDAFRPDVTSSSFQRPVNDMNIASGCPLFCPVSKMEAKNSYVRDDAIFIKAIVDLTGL

Variants of: B1
Conditions: with traf5_human TRAF5, O00463
Chain of traf5_human TRAF5, O00463 (O00463 whole entry): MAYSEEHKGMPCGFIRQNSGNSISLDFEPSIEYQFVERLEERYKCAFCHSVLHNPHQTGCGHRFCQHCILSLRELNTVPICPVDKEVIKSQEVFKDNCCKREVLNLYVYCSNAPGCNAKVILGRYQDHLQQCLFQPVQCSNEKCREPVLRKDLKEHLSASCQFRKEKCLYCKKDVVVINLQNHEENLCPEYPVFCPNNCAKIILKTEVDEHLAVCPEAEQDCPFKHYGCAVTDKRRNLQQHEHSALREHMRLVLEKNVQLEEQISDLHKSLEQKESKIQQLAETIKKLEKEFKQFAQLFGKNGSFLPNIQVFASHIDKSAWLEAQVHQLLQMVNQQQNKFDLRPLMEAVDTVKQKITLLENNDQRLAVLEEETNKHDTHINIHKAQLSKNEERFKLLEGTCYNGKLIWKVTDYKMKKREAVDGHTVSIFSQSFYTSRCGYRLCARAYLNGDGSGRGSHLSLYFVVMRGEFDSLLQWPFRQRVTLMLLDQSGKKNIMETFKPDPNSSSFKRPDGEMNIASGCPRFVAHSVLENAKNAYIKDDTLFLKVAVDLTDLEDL

Variant | effect of a mutation on the interaction
E271A | decreasing interaction

Variants of: B2
Conditions: with traf2_human TRAF2, Q12933

Variant | effect of a mutation on the interaction
E271A | decreasing interaction
